Measured values as given in US20160272683A1 (Novo Nordisk, published 2016).
Each block holds one binder with its values, some of them ahead of it. Numbered stars: 1 amine (or outer) side, 2 acyl side, 3 side chain; on linkers, the order of the positions; unused ones are H or OH. Side chains are listed from the residue outwards. Ends that are not written are not given here. * marks the point of attachment. C20 diacid = O=C(O)CCCCCCCCCCCCCCCCCCC(=O)*; γGlu = O=C(O)[C@H](CCC(=O)[*:2])N[*:1]

Key:
[1] = molecular target: T1, human calcitonin receptor (human, UniProt P30988 25-474); assay: SPA competition vs 125I-calcitonin, membranes with human CTR (Assay VII)
T1 construct: whole, on cells; Assay VII: membranes on SPA beads; also called hCT-R; hCTR
T1 sequence (looked up): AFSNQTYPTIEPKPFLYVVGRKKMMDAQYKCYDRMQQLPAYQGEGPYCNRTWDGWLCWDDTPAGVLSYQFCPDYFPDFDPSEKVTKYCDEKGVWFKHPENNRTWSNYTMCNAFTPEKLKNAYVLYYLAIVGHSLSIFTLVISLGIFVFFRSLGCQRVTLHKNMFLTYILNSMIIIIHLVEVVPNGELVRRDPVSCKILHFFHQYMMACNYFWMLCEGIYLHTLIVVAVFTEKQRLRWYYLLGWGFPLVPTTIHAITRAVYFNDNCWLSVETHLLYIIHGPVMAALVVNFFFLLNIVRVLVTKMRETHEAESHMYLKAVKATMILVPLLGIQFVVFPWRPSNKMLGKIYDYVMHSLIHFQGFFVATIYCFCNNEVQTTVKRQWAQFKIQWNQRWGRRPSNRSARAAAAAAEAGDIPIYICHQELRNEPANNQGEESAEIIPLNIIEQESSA
Experimental: The binding assay was performed using scintillation proximity assay (SPA) beads (RPNQ0001) from PerkinElmer® and cell membranes prepared from a BHK tk'ts 13 cell line was stably transfected with the human calcitonin receptor and a CRE-responsive luciferase reporter gene. Membranes were prepared in the following way; the cells were rinsed with PBS and incubated with Versene for approximately 5 min before harvesting. The cells were flushed with PBS and the cell-suspension was centrifuged for 5 min at 1000 rpm.
(§1) EDTA (pH 7.4, buffer 2). The resulting pellet was resuspended in buffer 2 and protein concentration was tested (BCA protein Assay, Pierce). The homogenate was kept cold during the whole procedure. The membranes were kept at −80° C. until use. Assay was performed in a 384 well Optiplate (PerkinElmer®) in a total volume of 40 ul. Membranes were mixed with SPA beads. Final concentration of membranes 35 ng/μL final and Final concentration of SPA beads was 0.05 mg/well. Test-compounds were dissolved in DMSO and further diluted in assay buffer (50 mM Hepes, pH 7.4, 1 mM CaCl2, 5 mM MgCl2, 0.1% OA and 0.02% Tween20). […] Samples were analyzed on TopCounter™ (Packard). The IC₅₀ was calculated using (one site binding competition analysis) GraphPad Prism5 as a measure of receptor affinity.

[2] = molecular target: T2, human amylin receptor (amylin 3(a) receptor: human calcitonin receptor with RAMP-3) (human, UniProt P30988 25-474; O60896 24-148, limits assumed); assay: SPA competition vs 125I-rat amylin, membranes with human CTR + RAMP-3 (Assay V)
T2 construct: whole, on cells; Assay V: membranes of the Amylin 3(a)/CRE-luc BHK cells on SPA beads; also called hAmylin-R
T2 sequence (looked up) 1: T1 sequence (looked up)
T2 sequence (looked up) 2: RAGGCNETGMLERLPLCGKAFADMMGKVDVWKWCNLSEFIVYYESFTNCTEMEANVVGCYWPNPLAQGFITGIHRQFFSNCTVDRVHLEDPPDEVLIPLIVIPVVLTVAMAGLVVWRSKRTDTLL
Experimental: as §1, with “The binding assay was performed using scintillation proximity assay (SPA) beads (RPNQ0001) from PerkinElmer and cell membranes from the Amylin 3(a)/CRE-luc cells (as described in Assay (II)) were used. Membranes were prepared in the following way; the cells were rinsed with PBS and incubated with Versene for approximately 5 min before harvesting. The cells were flushed with PBS and the cell-suspension was centrifuged for 5 min at 1000 rpm. […] The” for “EDTA (pH 7.4, buffer 2). The”, “use. The assay” for “use. Assay”, “Optiplate (PerkinElmer)” for “Optiplate (PerkinElmer®)”, “and” for “and Final concentration of”

IC50 [1]: 0.102 nM
IC50 [2]: 0.141 nM
B1: [N-terminal(C20 diacid-gGlu), des1, 23Y, 30S, 31G, 32A]mimylin (peptide)
peptide: {C20 diacid-γGlu}-ASELSTAALGRLSAELHELATYPRTETGSGAP-NH2
SMILES: CC(C)C[C@H](NC(=O)[C@H](C)NC(=O)[C@H](C)NC(=O)[C@@H](NC(=O)[C@H](CO)NC(=O)[C@H](CC(C)C)NC(=O)[C@H](CCC(=O)O)NC(=O)[C@H](CO)NC(=O)[C@H](C)NC(=O)CC[C@H](NC(=O)CCCCCCCCCCCCCCCCCCC(=O)O)C(=O)O)[C@@H](C)O)C(=O)NCC(=O)N[C@@H](CCCNC(=N)N)C(=O)N[C@@H](CC(C)C)C(=O)N[C@@H](CO)C(=O)N[C@@H](C)C(=O)N[C@@H](CCC(=O)O)C(=O)N[C@@H](CC(C)C)C(=O)N[C@@H](Cc1c[nH]cn1)C(=O)N[C@@H](CCC(=O)O)C(=O)N[C@@H](CC(C)C)C(=O)N[C@@H](C)C(=O)N[C@H](C(=O)N[C@@H](Cc1ccc(O)cc1)C(=O)N1CCC[C@H]1C(=O)N[C@@H](CCCNC(=N)N)C(=O)N[C@H](C(=O)N[C@@H](CCC(=O)O)C(=O)N[C@H](C(=O)NCC(=O)N[C@@H](CO)C(=O)NCC(=O)N[C@@H](C)C(=O)N1CCC[C@H]1C(N)=O)[C@@H](C)O)[C@@H](C)O)[C@@H](C)O
notes: mimylin derivative; des1 = residue 1 deleted; also called Ex. #81; 81

IC50 [1]: 0.07 nM
IC50 [2]: 0.394 nM
B2: [N-terminal(C20 diacid-gGlu), des1, 23Y, 30S, 31G]mimylin (peptide)
peptide: {C20 diacid-γGlu}-ASELSTAALGRLSAELHELATYPRTETGSGSP-NH2
SMILES: CC(C)C[C@H](NC(=O)[C@H](C)NC(=O)[C@H](C)NC(=O)[C@@H](NC(=O)[C@H](CO)NC(=O)[C@H](CC(C)C)NC(=O)[C@H](CCC(=O)O)NC(=O)[C@H](CO)NC(=O)[C@H](C)NC(=O)CC[C@H](NC(=O)CCCCCCCCCCCCCCCCCCC(=O)O)C(=O)O)[C@@H](C)O)C(=O)NCC(=O)N[C@@H](CCCNC(=N)N)C(=O)N[C@@H](CC(C)C)C(=O)N[C@@H](CO)C(=O)N[C@@H](C)C(=O)N[C@@H](CCC(=O)O)C(=O)N[C@@H](CC(C)C)C(=O)N[C@@H](Cc1c[nH]cn1)C(=O)N[C@@H](CCC(=O)O)C(=O)N[C@@H](CC(C)C)C(=O)N[C@@H](C)C(=O)N[C@H](C(=O)N[C@@H](Cc1ccc(O)cc1)C(=O)N1CCC[C@H]1C(=O)N[C@@H](CCCNC(=N)N)C(=O)N[C@H](C(=O)N[C@@H](CCC(=O)O)C(=O)N[C@H](C(=O)NCC(=O)N[C@@H](CO)C(=O)NCC(=O)N[C@@H](CO)C(=O)N1CCC[C@H]1C(N)=O)[C@@H](C)O)[C@@H](C)O)[C@@H](C)O
notes: mimylin derivative; des1 = residue 1 deleted; also called Ex. #56; 56

IC50 [1]: 0.046 nM
IC50 [2]: 0.074 nM
B3: [N-terminal(acetyl), des1, 16K(C20 diacid-gGlu), 30S, 31G]mimylin (peptide)
peptide: Ac-ASELSTAALGRLSAK([γGlu-C20 diacid])LHELATLPRTETGSGSP-NH2
notes: mimylin derivative; des1 = residue 1 deleted; also called Ex. #69; 69

IC50 [1]: 0.034 nM
IC50 [2]: 0.057 nM
B4: [N-terminal(C20 diacid-gGlu), des1, 30S, 31G, 33H]mimylin (peptide)
peptide: {C20 diacid-γGlu}-ASELSTAALGRLSAELHELATLPRTETGSGSH-NH2
SMILES: CC(C)C[C@H](NC(=O)[C@H](C)NC(=O)[C@H](C)NC(=O)[C@@H](NC(=O)[C@H](CO)NC(=O)[C@H](CC(C)C)NC(=O)[C@H](CCC(=O)O)NC(=O)[C@H](CO)NC(=O)[C@H](C)NC(=O)CC[C@H](NC(=O)CCCCCCCCCCCCCCCCCCC(=O)O)C(=O)O)[C@@H](C)O)C(=O)NCC(=O)N[C@@H](CCCNC(=N)N)C(=O)N[C@@H](CC(C)C)C(=O)N[C@@H](CO)C(=O)N[C@@H](C)C(=O)N[C@@H](CCC(=O)O)C(=O)N[C@@H](CC(C)C)C(=O)N[C@@H](Cc1c[nH]cn1)C(=O)N[C@@H](CCC(=O)O)C(=O)N[C@@H](CC(C)C)C(=O)N[C@@H](C)C(=O)N[C@H](C(=O)N[C@@H](CC(C)C)C(=O)N1CCC[C@H]1C(=O)N[C@@H](CCCNC(=N)N)C(=O)N[C@H](C(=O)N[C@@H](CCC(=O)O)C(=O)N[C@H](C(=O)NCC(=O)N[C@@H](CO)C(=O)NCC(=O)N[C@@H](CO)C(=O)N[C@@H](Cc1c[nH]cn1)C(N)=O)[C@@H](C)O)[C@@H](C)O)[C@@H](C)O
notes: mimylin derivative; des1 = residue 1 deleted; also called Ex. #60; 60

IC50 [1]: 0.077 nM
IC50 [2]: 0.206 nM
B5: [N-terminal(acetyl), des1, 19K(C20 diacid-gGlu), 30S, 31G]mimylin (peptide)
peptide: Ac-ASELSTAALGRLSAELHK([γGlu-C20 diacid])LATLPRTETGSGSP-NH2
notes: mimylin derivative; des1 = residue 1 deleted; also called Ex. #70; 70

IC50 [1]: 0.136 nM
IC50 [2]: 0.724 nM
B6: [des1, 4K(C20 diacid-gGlu), 30S, 31G]mimylin (peptide)
peptide: ASK([γGlu-C20 diacid])LSTAALGRLSAELHELATLPRTETGSGSP-NH2
modifications: N-terminus assumed
SMILES: CC(C)C[C@H](NC(=O)[C@H](C)NC(=O)[C@H](C)NC(=O)[C@@H](NC(=O)[C@H](CO)NC(=O)[C@H](CC(C)C)NC(=O)[C@H](CCCCNC(=O)CC[C@H](NC(=O)CCCCCCCCCCCCCCCCCCC(=O)O)C(=O)O)NC(=O)[C@H](CO)NC(=O)[C@H](C)N)[C@@H](C)O)C(=O)NCC(=O)N[C@@H](CCCNC(=N)N)C(=O)N[C@@H](CC(C)C)C(=O)N[C@@H](CO)C(=O)N[C@@H](C)C(=O)N[C@@H](CCC(=O)O)C(=O)N[C@@H](CC(C)C)C(=O)N[C@@H](Cc1c[nH]cn1)C(=O)N[C@@H](CCC(=O)O)C(=O)N[C@@H](CC(C)C)C(=O)N[C@@H](C)C(=O)N[C@H](C(=O)N[C@@H](CC(C)C)C(=O)N1CCC[C@H]1C(=O)N[C@@H](CCCNC(=N)N)C(=O)N[C@H](C(=O)N[C@@H](CCC(=O)O)C(=O)N[C@H](C(=O)NCC(=O)N[C@@H](CO)C(=O)NCC(=O)N[C@@H](CO)C(=O)N1CCC[C@H]1C(N)=O)[C@@H](C)O)[C@@H](C)O)[C@@H](C)O
notes: mimylin derivative; des1 = residue 1 deleted; also called Ex. #52; 52

IC50 [1]: 0.113 nM
IC50 [2]: 0.243 nM
B7: [N-terminal(C20 diacid-gGlu), des1, 30S, 31G, 33Y]mimylin (peptide)
peptide: {C20 diacid-γGlu}-ASELSTAALGRLSAELHELATLPRTETGSGSY-NH2
SMILES: CC(C)C[C@H](NC(=O)[C@H](C)NC(=O)[C@H](C)NC(=O)[C@@H](NC(=O)[C@H](CO)NC(=O)[C@H](CC(C)C)NC(=O)[C@H](CCC(=O)O)NC(=O)[C@H](CO)NC(=O)[C@H](C)NC(=O)CC[C@H](NC(=O)CCCCCCCCCCCCCCCCCCC(=O)O)C(=O)O)[C@@H](C)O)C(=O)NCC(=O)N[C@@H](CCCNC(=N)N)C(=O)N[C@@H](CC(C)C)C(=O)N[C@@H](CO)C(=O)N[C@@H](C)C(=O)N[C@@H](CCC(=O)O)C(=O)N[C@@H](CC(C)C)C(=O)N[C@@H](Cc1c[nH]cn1)C(=O)N[C@@H](CCC(=O)O)C(=O)N[C@@H](CC(C)C)C(=O)N[C@@H](C)C(=O)N[C@H](C(=O)N[C@@H](CC(C)C)C(=O)N1CCC[C@H]1C(=O)N[C@@H](CCCNC(=N)N)C(=O)N[C@H](C(=O)N[C@@H](CCC(=O)O)C(=O)N[C@H](C(=O)NCC(=O)N[C@@H](CO)C(=O)NCC(=O)N[C@@H](CO)C(=O)N[C@@H](Cc1ccc(O)cc1)C(N)=O)[C@@H](C)O)[C@@H](C)O)[C@@H](C)O
notes: mimylin derivative; des1 = residue 1 deleted; also called Ex. #59; 59

IC50 [1]: 0.01 nM
IC50 [2]: 0.05 nM
B8: [N-terminal(acetyl), des1, 4K(C20 diacid-gGlu), 30S, 31G]mimylin (peptide)
peptide: Ac-ASK([γGlu-C20 diacid])LSTAALGRLSAELHELATLPRTETGSGSP-NH2
notes: mimylin derivative; des1 = residue 1 deleted; also called Ex. #68; 68
